From PMC6702220 (Communications Biology, 2019)

Biological target: the molecule itself
Assay: crystal structure; hanging drop, 22 °C; 5 mg/ml PlsX, 1 mM 1-oxohexadecylphosphoramidic acid, 0.08 M Tris-HCl pH 8.0, 0.16 M Li2SO4, 21% PEG 4000, 0.012 mM CYMAL 7, 5% t-butanol; 2.30 Å; two subunits in the asymmetric unit

B1: Bacillus subtilis phosphate acyltransferase PlsX (enzyme, UniProt P71018 1-333, looked up)
chain: MRIAVDAMGGDHAPKAVIDGVIKGIEAFDDLHITLVGDKTTIESHLTTTSDRITVLHADEVIEPTDEPVRAVRRKKNSSMVLMAQEVAENRADACISAGNTGALMTAGLFIVGRIKGIDRPALAPTLPTVSGDGFLLLDVGANVDAKPEHLVQYAIMGSVYSQQVRGVTSPRVGLLNVGTEDKKGNELTKQTFQILKETANINFIGNVEARDLLDDVADVVVTDGFTGNVTLKTLEGSALSIFKMMRDVMTSTLTSKLAAAVLKPKLKEMKMKMEYSNYGGASLFGLKAPVIKAHGSSDSNAVFHAIRQAREMVSQNVAALIQEEVKEEKTDE
notes: Phosphate acyltransferase PlsX, Bacillus subtilis; plsX gene amplified from genomic DNA and inserted into pET28a between NcoI and XhoI; Crystallised with the product analog 1-oxohexadecylphosphoramidic acid (palmitoyl phosphoramide), which was not found in the solved structure; also called B. subtilis PlsX; recombinant PlsX; source: E. coli C43 (DE3), purified (HisTrap HP, gel filtration on …)
stoichiometry N: 2
